Results published in patent US20260116951A1 (DUCENTIS BIOTHERAPEUTICS, published 2026).

T1: muCD200R-Fc (Creative Biomart CD200R1-458M) (mouse, UniProt Q9ES57 26-238)
T1 construct: Captured on anti-human IgG Fc for the mouse CD200 measurements; also called Murine CD200R1; immobilized CD200R (muCD200); not shown: Fc of the bought fusion, not described (captured on anti-human IgG Fc)
T1 sequence (looked up): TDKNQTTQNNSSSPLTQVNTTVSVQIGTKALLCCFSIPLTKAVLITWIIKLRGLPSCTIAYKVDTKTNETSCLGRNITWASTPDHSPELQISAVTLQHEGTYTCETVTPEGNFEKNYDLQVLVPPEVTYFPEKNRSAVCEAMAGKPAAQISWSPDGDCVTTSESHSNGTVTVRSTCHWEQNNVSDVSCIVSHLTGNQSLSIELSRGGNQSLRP

B1: DS-192 (human CD200-Fc, K130Y, IgG4 Fc) (Fc fusion)
chain: QVQVVTQDEREQLYTPASLKCSLQNAQEALIVTWQKKKAVSPENMVTFSENHGVVIQPAYKDKINITQLGLQNSTITFWNITLEDEGCYMCLFNTFGFGYISGTACLTVYVQPIVSLHYKFSEDHLNITCSATARPAPMVFWKVPRSGIENSTVTLSHPNGTTSVTSILHIKDPKNQVGKEVICQVLHLGTVTDFKQTVNKGPPCPPCPAPEFLGGPSVFLFPPKPKDTLMISRTPEVTCVVVDVSQEDPEVQFNWYVDGVEVHNAKTKPREEQFNSTYRVVSVLTVLHQDWLNGKEYKCKVSNKGLPSSIEKTISKAKGQPREPQVYTLPPSQEEMTKNQVSLTCLVKGFYPSDIAVEWESNGQPENNYKTTPPVLDSDGSFFLYSRLTVDKSRWQEGNVFSCSVMHEALHNHYTQKSLSLSLGK
notes: also called 13 nM CD200-Fc; ha CD200-IgG4 Fc
B2: Recombinant Human CD200R, His-tagged (Creative Biomart CD200R1-320H) (receptor, UniProt Q8TD46 27-266, looked up)
chain: AAQPNNSLMLQTSKENHALASSSLCMDEKQITQNYSKVLAEVNTSWPVKMATNAVLCCPPIALRNLIIITWEIILRGQPSCTKAYKKETNETKETNCTDERITWVSRPDQNSDLQIRTVAITHDGYYRCIMVTPDGNFHRGYHLQVLVTPEVTLFQNRNRTAVCKAVAGKPAAHISWIPEGDCATKQEYWSNGTVTVKSTCHWEVHNVSTVTCHVSHLTGNKSLYIELLPVPGAKKSAKL
notes: Bought; also called human CD200 receptor; not shown: His tag
B3: Human CD200R1L (receptor, UniProt Q6Q8B3 24-239, looked up)
chain: GKQMTQNYSTIFAEGNISQPVLMDINAVLCCPPIALRNLIIITWEIILRGQPSCTKAYKKETNETKETNCTVERITWVSRPDQNSDLQIRPVDTTHDGYYRGIVVTPDGNFHRGYHLQVLVTPEVNLFQSRNITAVCKAVTGKPAAQISWIPEGSILATKQEYWGNGTVTVKSTCPWEGHKSTVTCHVSHLTGNKSLSVKLNSGLRTSGSPALSLL
notes: nothing is said of the reagent
B4: Mouse CD200R protein (Creative Biomart CD200R1-3280M) (receptor, UniProt Q9ES57 26-238, looked up)
chain: TDKNQTTQNNSSSPLTQVNTTVSVQIGTKALLCCFSIPLTKAVLITWIIKLRGLPSCTIAYKVDTKTNETSCLGRNITWASTPDHSPELQISAVTLQHEGTYTCETVTPEGNFEKNYDLQVLVPPEVTYFPEKNRSAVCEAMAGKPAAQISWSPDGDCVTTSESHSNGTVTVRSTCHWEQNNVSDVSCIVSHLTGNQSLSIELSRGGNQSLRP
notes: also called Murine CD200R1; murine CD200R
B5: Murine wild-type CD200 monomer, his-tag (DS-131), printed in Table 7 as DS-198 (ligand, mouse, UniProt O54901 31-232, looked up)
chain: QVEVVTQDERKALHTTASLRCSLKTSQEPLIVTWQKKKAVSPENMVTYSKTHGVVIQPAYKDRINVTELGLWNSSITFWNTTLEDEGCYMCLFNTFGSQKVSGTACLTLYVQPIVHLHYNYFEDHLNITCSATARPAPAISWKGTGTGIENSTESHFHSNGTTSVTSILRVKDPKTQVGKEVICQVLYLGNVIDYKQSLDKG
notes: extracellular domain; the match of DS-131 to DS-198 follows the order of the sentence; also called wild type muCD200-Fc (the corresponding IgG2a Fc fusion); not shown: his tag
B6: Murine CD200 H82Y, T125I monomer, his-tag (DS-169), printed in Table 7 as DS-227 (ligand, mouse, UniProt O54901 31-232, looked up)
chain: QVEVVTQDERKALHTTASLRCSLKTSQEPLIVTWQKKKAVSPENMVTYSKTYGVVIQPAYKDRINVTELGLWNSSITFWNTTLEDEGCYMCLFNIFGSQKVSGTACLTLYVQPIVHLHYNYFEDHLNITCSATARPAPAISWKGTGTGIENSTESHFHSNGTTSVTSILRVKDPKTQVGKEVICQVLYLGNVIDYKQSLDKG
notes: extracellular domain; See the note of m9; not shown: his tag

Tests used:
[1] = molecular target: B2; assay: SPR, CD200R flowed over immobilized CD200-Fc, 25 C, 1:1 fit
Protocol: (§1) For human CD200 constructs: anti-human Fc (GE Healthcare) was covalently immobilized on a BIAcore CM5 sensor chip (Cytiva, BR100530) by amine coupling using a Cytiva kit (BR100839) following the manufacturer's instructions, targeting immobilization of 8,000-11,000 RU. CD200-Fc proteins were diluted to 0.5 μg/mL to 4 μg/mL in running Buffer (1×HBS-EP+pH7.4 (Cytiva BR100669), HEPES Buffered Saline pH 7.4 containing 3 mM EDTA and 0.05% v/v Surfactant P20) and flowed for 25 to 100 seconds at 10 μL/min over the immobilized Anti-Human IgG Fc, with a stabilization time of 60 seconds. Between 35 and 250 RUs of CD200-Fc were captured, with higher RUs used for cynomolgus CD200R binding experiments. […] Analysis temperature was 25° C. This was followed by regeneration of the surface with 30-90 second pulse of 3M MgCl₂ flowed at […] flow rate followed by stabilization of the surface with 60 second flow of running buffer.
(§2) Curves obtained were fitted to 1:1 Langmuir binding model by setting Rmax and RI as local parameters. Rate equations using standard parameters (e.g. ligand concentration, time) were used for iterative curve fitting. […] Means of 2 experiments carried out on the same day are shown with standard deviation. Residue numbering for CD200 proteins refers to the pre-protein, containing a signal peptide which is cleaved during insertion into the endoplasmic reticulum.

[2] = molecular target: T2, Recombinant Cyno CD200R, His-tagged (Creative Biomart CD200R1-3483C) (cynomolgus monkey); assay: SPR, cyno CD200R1 flowed over immobilized CD200-Fc, 25 C, 1:1 fit
T2 construct: Bought; also called cynomolgus CD200R1; cynomolgus CD200R
Protocol: as §1, §2

[3] = molecular target: T2, Recombinant Cyno CD200R, His-tagged …; assay: SPR, cyno CD200R1 flowed over immobilized CD200-Fc, 25 C, 1:1 fit, mean of 2 experiments with standard deviation
Protocol: as §1, §2

[4] = molecular target: B1; assay: SPR, CD200R flowed over immobilized CD200-Fc, 25 C, 1:1 fit, mean of 2 experiments with standard deviation
Protocol: as §1, §2

[5] = molecular target: B1; assay: SPR (BIAcore)
[6] = molecular target: T1, muCD200R-Fc (Creative Biomart …); assay: SPR, his-tag mouse CD200 monomer flowed over muCD200R-Fc captured on anti-human Fc, 25 C, 1:1 fit
Protocol: (§3) For mouse CD200 constructs, muCD200R-Fc (Creative Biomart CD200R1-458M) diluted to 1 μg/mL in running buffer was flowed over the immobilized Anti-Human IgG Fc, with CD200 monomers serially diluted and flowed over captured CD200R. Other details were as above. Data analysis: experimental sensorgrams were analyzed in BIAevaluation software (GE Healthcare). The curves obtained were fitted to 1:1 Langmuir binding model by setting Rmax and RI as local parameters. Rate equations using standard parameters (e.g. ligand concentration, time) were used for iterative curve fitting. Closeness of fit was determined by algorithms provided by the manufacturer in the BIAevaluation software, and data accepted if the Chi² value was less than 10% of Rₘₐₓ, and the U value was less than or equal to 15.
as §2

[7] = molecular target: T1, muCD200R-Fc (Creative Biomart …); assay: SPR, his-tag mouse CD200 monomer flowed over muCD200R-Fc captured on anti-human Fc, 25 C, 1:1 fit, mean of 2 experiments with standard deviation
Protocol: as §3, §2

[8] = molecular target: T1, muCD200R-Fc (Creative Biomart …); assay: SPR, monomeric binding
Protocol: as §3, §2

Row | Binder | binding result [5] | T1/2 [6] [min] | Kd [7] [nM] | other results
1 | B1 | – | – | – | T1/2 [1]: 3.1 min; T1/2 [2]: 0.32 min; Kd [3]: 459 nM
2 | B2 | – | – | – | Kd [4]: 12.5 nM
3 | B3 | no binding | – | – | –
4 | B4 | no binding | – | – | –
5 | B5 | – | 0.288 | 584 | –
6 | B6 | – | 1.96 | 43.3 | fold higher affinity than wild type [8]: ~14 fold
